Source: US20030113828A1 (published 2003)
One block for each binder: values may come before it. Square brackets hold non-standard residues; d marks the D form. Ends that are not written are not given here. pY = N[C@@H](Cc1ccc(OP(=O)(O)O)cc1)C(=O)O

How the values were obtained:
[1] = target: T1, Syk protein tyrosine kinase (wild type) (UniProt P43405 1-635); experiment: cell-based or functional assay
[2] = target: T2, GST-Zap-70(1-337) (human, UniProt P43403 1-337); experiment: affinity chromatography / surface plasmon resonance
T2 construct: range 1-337; also called tandem SH2 domains of Zap-70; not shown: glutathione S-transferase (GST) from pGEX-2T
T2 sequence (looked up): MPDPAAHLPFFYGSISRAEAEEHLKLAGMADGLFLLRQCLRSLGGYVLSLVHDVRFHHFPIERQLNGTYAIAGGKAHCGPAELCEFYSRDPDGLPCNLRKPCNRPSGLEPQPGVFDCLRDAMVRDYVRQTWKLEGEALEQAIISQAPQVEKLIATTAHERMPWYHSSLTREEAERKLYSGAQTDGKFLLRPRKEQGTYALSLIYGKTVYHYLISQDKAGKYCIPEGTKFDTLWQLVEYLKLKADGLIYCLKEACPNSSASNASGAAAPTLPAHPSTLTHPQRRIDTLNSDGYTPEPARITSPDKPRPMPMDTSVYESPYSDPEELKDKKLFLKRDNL

[3] = target: Syk(6-370) cleaved from GST-Syk(6-370) by thrombin (UniProt P43405 6-370); experiment: surface plasmon resonance (BIAcore 3000)
Description: However integrins are far more abundant than ITAM containing receptor complexes on most cells. For example, Jurkat T cells express ˜80,000 copies of α4β1 (Chen et al. (1999) J Biol Chem 274:13167-13175) and only ˜-12,000 copies of the TCR (Graber et al. (1991) J Immunol 146:2935-2943) on their cell surface.
Experimental procedures, integrin cytoplasmic domain modifications, and data analysis was performed in accordance with procedures described by Yan et al. ((2001) J Biol Chem 276:28164-28170).

[4] = target: T3, Zap-70(1-132) (human, UniProt P43403 1-132); experiment: binding of Zap-70 truncation mutants to the β3 tail
T3 construct: range 1-132
T3 sequence (looked up): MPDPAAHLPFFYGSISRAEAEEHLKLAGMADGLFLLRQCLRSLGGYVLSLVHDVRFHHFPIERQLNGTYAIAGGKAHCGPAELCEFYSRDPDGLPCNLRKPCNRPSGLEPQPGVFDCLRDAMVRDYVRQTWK
Description: (§1) For direct binding assays, model peptides (1 mg) were dissolved in 1 ml buffer containing 20 mM Tris (pH 7.9), 500 mM NaCl, and 6 M urea. To this, 50 ul packed His-Bind® Resin (Novagen, Madison, Wis.) was added and the mixture was rotated for 1 hour at room temperature. Immobilized peptides were washed 5× in above buffer without urea, and resuspended in 500 μl buffer containing 20 mM PIPES pH 6.8, 50 mM NaCl, 3 mM MgCl₂, 150 mM sucrose, 50 mM NaF, 40 mM Na₄P₂O₇*10H₂O (buffer A) supplemented with 0.1% TritonX-100 and 3 mM MgCl₂. Purified GST-fusion proteins were added to 0.5 ml buffer A supplemented with 0.1% TritonX-100 and 3 mM MgCl₂. Five μl of total packed resin loaded with various integrin cytoplasmic domain model proteins was added to the GST-fusion protein. The mixture was incubated for 40 minutes at room temperature with continuous rotation. The beads were then washed five times in buffer A with 0.1% TritonX-100 and 3 mM MgCl₂. Bound proteins were eluted by boiling in reducing sample buffer, fractionated by SDS PAGE, and immuno-blotted.

[5] = target: T4, Zap-70(1-162) (human, UniProt P43403 1-162); experiment: as above
T4 construct: range 1-162; also called N-terminal SH2 domain of Zap-70 with its intact IA domain
Description: as §1

[6] = target: T5, GST fusion of the interdomain A of Syk (UniProt P43405 108-167); experiment: direct binding assay with GST fusion of Syk interdomain A
T5 construct: domain: interdomain A; also called Syk interdomain A GST-fusion protein; not shown: glutathione S-transferase (GST) fusion partner
Description: (§2) The regions involved in phosphotyrosine binding are widely separated and in opposite orientation (Hof et al. (1998) Cell 92:441-450).
as §1

[7] = target: T6, GST-Syk(163-270) (UniProt P43405 163-270); experiment: direct binding assay
T6 construct: also called C-terminal SH2 domain of Syk; not shown: glutathione S-transferase (GST) fusion partner
Description: as §2, §1

[8] = target: T7, tandem SH2 domains of SHP-2 (UniProt Q06124 1-220, limits assumed); experiment: direct binding assay
T7 construct: domain: tandem SH2 domains
T7 sequence (looked up): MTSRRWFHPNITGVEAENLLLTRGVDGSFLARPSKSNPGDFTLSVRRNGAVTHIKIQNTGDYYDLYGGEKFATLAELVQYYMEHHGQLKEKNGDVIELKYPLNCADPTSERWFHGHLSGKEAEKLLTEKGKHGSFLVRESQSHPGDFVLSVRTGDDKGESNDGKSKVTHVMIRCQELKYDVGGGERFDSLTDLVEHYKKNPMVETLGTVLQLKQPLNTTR
Description: as §2, §1

[9] = target: T8, GST-Zap-70(1-103) (human, UniProt P43403 1-103); experiment: direct binding assay
T8 construct: range 1-103; also called Zap-70 N-terminal SH2 domain; not shown: glutathione S-transferase (GST) from pGEX-2T
T8 sequence (looked up): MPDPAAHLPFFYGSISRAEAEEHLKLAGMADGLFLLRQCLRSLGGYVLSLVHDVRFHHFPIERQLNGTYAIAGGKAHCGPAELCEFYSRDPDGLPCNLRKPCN
Description: as §2, §1

[10] = target: T9, GST-Zap-70(163-254) (human, UniProt P43403 163-254); experiment: direct binding assay
T9 construct: also called Zap-70 C-terminal SH2 domain; not shown: glutathione S-transferase (GST) from pGEX-2T
T9 sequence (looked up): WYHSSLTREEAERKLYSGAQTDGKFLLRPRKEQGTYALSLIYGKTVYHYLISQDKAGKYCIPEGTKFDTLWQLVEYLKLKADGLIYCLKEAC
Description: as §2, §1

[11] = target: T1, Syk protein tyrosine kinase (wild type); experiment: binding to β3 tail deletion mutant in vitro
Description: as §1

[12] = target: T1, Syk protein tyrosine kinase (wild type); experiment: affinity chromatography of cell lysates on tail model protein beads, immunoblot
Text: (§3) The model protein mimics are designed with an N-terminal heptad repeat sequence joined to the integrin cytoplasmic domains. The repeats form a coiled-coil homodimer that dimerizes the integrin tails (Pfaff et al. (1998) J Biol Chem 273:6104-6109). These protein mimics are also describied in U.S. patent application Ser. No. 90/320,907, filed May 27, 1999 and U.S. patent application Ser. No. 90/323,447, filed Jun. 1, 1999, the teachings of which are herein incorporated by reference in their entirety.
(§4) Following incubation, beads were washed and bound protein was analyzed by immunoblotting.

[13] = target: T10, Zap-70 (human, UniProt P43403 1-619); experiment: as above
T10 construct: also called Syk paralog
T10 sequence (looked up): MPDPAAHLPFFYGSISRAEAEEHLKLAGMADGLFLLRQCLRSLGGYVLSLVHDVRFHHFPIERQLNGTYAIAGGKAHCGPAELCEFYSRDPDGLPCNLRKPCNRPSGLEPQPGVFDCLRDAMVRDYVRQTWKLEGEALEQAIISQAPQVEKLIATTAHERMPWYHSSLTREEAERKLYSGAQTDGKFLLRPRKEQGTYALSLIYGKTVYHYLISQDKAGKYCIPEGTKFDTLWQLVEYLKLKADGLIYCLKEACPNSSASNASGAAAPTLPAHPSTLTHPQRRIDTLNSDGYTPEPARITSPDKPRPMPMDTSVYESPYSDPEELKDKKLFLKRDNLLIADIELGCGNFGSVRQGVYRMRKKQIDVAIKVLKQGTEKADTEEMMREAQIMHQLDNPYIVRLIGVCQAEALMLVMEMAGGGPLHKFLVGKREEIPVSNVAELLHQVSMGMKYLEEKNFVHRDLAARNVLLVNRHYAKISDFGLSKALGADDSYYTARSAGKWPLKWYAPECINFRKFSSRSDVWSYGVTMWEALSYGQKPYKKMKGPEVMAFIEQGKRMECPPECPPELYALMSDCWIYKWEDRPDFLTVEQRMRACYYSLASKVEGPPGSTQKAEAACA
Text: as §3, §4

[14] = target: T2, GST-Zap-70(1-337); experiment: direct binding of GST fusion protein to tail model protein beads, immunoblot
Description: as §4, §1

[15] = target: GST-Syk(6-370) (UniProt P43405 6-370); experiment: as above
Description: as §4, §1

- activation of Syk kinase in vitro (EC50) [1]: 1000 to 2000 nM
B1: dually-phosphorylated FcεRIγ chain ITAM peptide (peptide)
peptide: DGV[pY]TGLSTRNQET[pY]ETLKTCR

- binding result [2]: binds
B2: β1A integrin cytoplasmic domain model protein (other, UniProt P05556 752-798, looked up, not shown: small tags and cut ends)
chain: KLLMIIHDRREFAKFEKEKMNAKWDTGENPIYKSAVTTVVNPKYEGK
modifications: not fully specified
notes: domain: cytoplasmic domain

- Kd [3]: 36 nM
- binding result [2]: binds
B3: β2 integrin cytoplasmic domain model protein (other, UniProt P05107 724-769, looked up, not shown: small tags and cut ends)
chain: KLLIHLSDLREYRRFEKEKLKSQWNNDNPLFKSATTTVMNPKFAES
modifications: not fully specified
notes: domain: cytoplasmic domain

- Kd [3]: 24 nM
- binding result [4]: binds
- binding result [5]: binds
- binding result [2]: binds
- binding result [6]: no binding
- binding result [7]: no binding
- binding result [8]: no binding
- binding result [9]: binds
- binding result [10]: no binding
B4: integrin β3 cytoplasmic tail model protein (other, UniProt P05106 742-788, looked up, not shown: a dimerising Fc or GST)
chain: KLLITIHDRKEFAKFEEERARAKWDTANNPLYKEATSTFTNITYRGT
modifications: also: coiled-coil homodimer
notes: domain: cytoplasmic domain; Coiled-coil homodimer; also called β3 tail; β3 tail model protein

- binding result [11]: no binding
B5: β3(759X) cytoplasmic tail model protein (other, UniProt P05106 742-784, looked up, not shown: small tags and cut ends)
chain: KLLITIHDRKEFAKFEEERARAKWDTANNPLYKEATSTFTNIT
modifications: not fully specified
notes: domain: cytoplasmic domain; C-terminal truncation

- binding result [11]: no binding
B6: β3(752X) cytoplasmic tail model protein (other, UniProt P05106 742-777, looked up, not shown: small tags and cut ends)
chain: KLLITIHDRKEFAKFEEERARAKWDTANNPLYKEAT
modifications: not fully specified
notes: domain: cytoplasmic domain

- binding result [12]: no binding
- binding result [13]: no binding
- binding result [14]: no binding (tested: 5 nM)
- binding result [15]: no binding (tested: 5 nM)
B7: integrin β3(Y747A) cytoplasmic tail model protein (other, UniProt P05106 742-788, looked up, not shown: small tags and cut ends)
chain: KLLITIHDRKEFAKFEEERARAKWDTANNPLAKEATSTFTNITYRGT
modifications: not fully specified
notes: domain: cytoplasmic domain; also called β3(Y747A) tail; point mutant of the β3 tail (Y747A)
